In the DeepSol protein solubility set:

Assay: soluble on expression in E. coli; label from the status in PepcDB or PDB records

Sequence | soluble on expression in E. coli
MSLEEDIQKQIIAAKEEAHDETIWGKPANDIITGIGNNSGVRPQRAIWEMVQNARDVSLNGKADIVFERQHDCFIFQHNGISFTNNTLEALILQTSSKVRNDSVQVGQYGTGFLTTHKLGLKFTLSSSVQLLENEQLFHHFSNFLIDRSSTDKKQMRDSLKKQIKITEEWARNPTIVSGPSSLTTFRYIQEHEVEKMNTKEAFKASSALAPYVIALNPCVNSISFVDNVEDCKELYIRKSTEIINTCDFYNVVKVTIDKCETESCDFTVLMLQSKETVEESGEPKVIVILPIKELESKSVAFALSKDVPNLFIYLPLLGTEQWGLNFIFHSPLFTCDKDSRDSLRFVGNGQNNDVDAERNKGIIQLADVIVSHYITENLSNIQDCMYLAKVAFNLHNSDEALANYYKSLQSSWVKKYESFPFVITKNGNIITRQAKVFDKELFDACLENKDLLTAVYNVTVQIYGTDYLPLETNMLFWSETLLQWYEAESFNPHLIHLSDIVEYIDKNNITTIGEENLWCIDNYIANSKQIGLFTKYKLLPTKNGELRVREDLLNPIIHDESLLKILDSLLPNDVASFIHTRFVLFEDVKIEEYDHNKVKESMRLLVSELSDLQKGHEIYRTNILAGLDVDSNKYEQNKLSDNHINALMGFYAYIVNIGGEAFQYKMIHLLADFYNIDLKSGEAYIKEIYDWRTVAPLLIKDALFRFTLMDSQKQAENAEWVRQMVIALYNYSDYRTYLDKYTVYPNEMDKYCYSKKISKSVNITNDLIALYDKIVNNENGENMCKSIKCVLLKNTYNDYFVENATIEGSSLAEKIMLEIKREGAYPDISANKWKQQILDIIAKQDKDVYWASIFGEIDSSKGAILLSVIQEKEKKDSILSLIRVSDTKKLKALAEVAEDDNLARIIELGKAALRDEMNSEADFEYKKKLGEYVEELIRKEIDSKLKAGSHIMEVLSQQDGQDIIILLDGTAIYYIEVKSRWSQKDSVLMSALQFRTSVEEKTHYALCEVDMITYNRENVDKHEFPDVEETINRISAIMNIGVLNETLKDTLNQDSDQVHVGGDYKVVVPQTVWEEHGKHFNELVEEIKKIVEEKEGHHHHHH | soluble
MSLEEFVKTGKTVCILINKQGRIYYSNIGKDVAEKCLEDIHIFDHLPADGTVSYNVGYYTVTADTVDLDEAHYYLILIQPQGNLYKYAYRDSFTGLYNRNYWEQLISGKMHRPIPKRFTLIVIDVDNLKSLNDNRGHLAGDKAIRIVGKSIRESIRKQDIAVRYGGDEFFILLANTKKAIVEKVINRVKENIRKRGKEENIHIEISVGMACSNSINKLEKVITMADYNMYKEKREKKVQVKHIGEGHHHHHH | not soluble
MSLEELVKKLGDKLNEAEADAKKFGKLIGRITRFESVSLKDNELIGVDIAFEDYLNSDVKKGQYLAIRSITRPVTILGQVRAITRADALSKLGIRELSYPKDPTTIITTTYVELKPIAEIENGKIRPPVSPVDPQSPVFIPNHDLIEKILNIPSRGITIGKIFSGGEETDASVRLDEYTLRHHTLILGTTGSGKTTLLKSMISSEEIDKGTFIFDRQGDFINYLIEKRRGFAVIMPVVEEASRSISLKDHAEKFANWYDCDNILDVKEDGVLEECNGSEVFLIPYSINFYSVLKNFNKITPYFTPKASMYWEAIVNNMFEIIGYDLYELADKKQTFYEDQLSDFLRDRLTPGSLLGKISGFYDLKMVSGSKSKQFSSYDGSKKMLTINMGKAFEEAMKRLDVPYQTKEAILRTLKAYDSYGIFTVPGTVDFKPKDVFSSYSDVVVDLSWVMNRSASIEAVATIAYKLLEDFFNWKDELYKMKETTKLTLVIMDEAHEYFPQTDQENVSKDIVEGLINRIMRLGRVRNIGVVLATHVPEDLNPLVLQLTNTKVVMRNESHVLRRLGLEEYEDFLRHATPGLAIVYSIYFSEVPIKTIQREGHHHHHH | soluble
MSLEENDFDAIYIGNSKSMIKDYRGFVFTMRELREKFPNAVLITDLEPFFYPLAVYLGIDAFDIRSLKIYSYEGLGFTQFSPIIWDEPKEDPVEYAKKIIRLIRIAIHEGKLRYLVENFLPTSMNAGILRIADRENIEYLEKYTPVDDKTVVFISDYSMTRPEVYRWAKRVRERFEPPKDIELLLILPCSAKKPYSRSRSHTLYRSAVKEALGEKMHRVHELIVTSPYGVVPREWEWIAKYDIVVTGHWSEREVRLAGELLADVLEKYPDIPIIAHVEGGYREAVKLAMELSGRDVIFTAKGNSTTSRESLANLTKTLKEFDVRDVDKEYRRYRFYENIRKIFDFYFGLNAGYAVLPERAQVVGSKMLRLIVDNQQTGTFQEGVISVTPWGMQRIYDELHSYWVEIDFDVRGDIFAAGVGSADEKIRPNDWVGVVRDGKVVAVGRAVLSGEEMVKAKRGVAVKVKKKAKEGHHHHHH | not soluble
MSLEKLMALYNISSPSGKEGKIAGFIIGELRRMGIPFRQDRYGNIYAVKGNRESYPCVVAHMDEVHRRKTGSYAAHLVADSMIVGYDHKRKRMTGIGADDKNGIWICLKCLEDFKAVKCAFFVQEEIGCIGSGHADMSFFSDCRFVIQCDRKGNGDMVTQINGMRLCSNEFISAVDPRKYGYKPAQGLATDVAALKRNGLEVSCVNLSCGYYEPHTDNEYTVLADLCKCYRFVRHIICCHKEGHHHHHH | soluble
MSLEKLTYAEVVNVIDGQVLGGRAGLHKTLNKFVIGAMELDAMMRYTAAGNLLIVGNRINAHRQALEAGAAVLVTGGFNTDDSIVQLADELELPILSTSYDTFTVAAMINRAIYDQLIKKEIVLVEDILTPADRTVYLSPKDKLEKWYEKNFETGHGRFPVVDDQMKIHGILTSKDIAGHDRNASIEKVMTKNPVTVIGKTSVASAAQMMVWEGIEVLPVTDGHQKLIGMISRQDVLKALQMIQKEGHHHHHH | soluble
MSLEKTKLPWDEFFSLNKDINHTYFTPEDFSGDEDLIAKTTEQFVKQEIVPQMENIEQHNYKVSRQLFEKAGELGLLGIEVPEDYGGFELGKAVSGLVAEKMGYAGAFSVSFNIHAGVGTLPYIYYGTKEQKEKYLPKIASGEWIGAYALTEPNAGSDALSAKTSAVLNEEGTAWKLNGEKQWITNAHMADVYVVFAKTNKGMTAFIVERTCEGVSIGLEEKKMGIKGSSTATLILEDVVIPAENVLGEVGKGHHVALNILNFARLKLAFGNIGTAKQAIGLSVQYGKERKQFQTELVDFTMIQEKIANMIIATYGAESAAYRTAGVIDEAIHESDEDLMKKMSQFAIECALNKVNASETLAYIVDEAVQIHGGYGYMQEYEVERLYRDARISRIFEGTNEINRLTVAKMLMKQIEQLEDTEVESDVANVERNHRYILLAKKLLKQSLKTLSKTPGLKIDQEQEYSRVISNMLTDVYVMESAFLRTRKAVSKNGEEKERTKQLITDVICEEGYRKVEEAAISVLSAAVTEEQDRHVILAEIRQLLVPLYTNVFTKKREIAKAIINRGKYIVEGHHHHHH | soluble
MSLELSLADRPAIVTGASRGIGREIAARFAEAGGDVVVCSRTYEDVEAVATELTQTHDGRVVPVECDVTDREAVRDLVDTTIQEFGDIRVLVNNAGGADESANLLHRCDEETFESMVDLNLKSQFLLSKEVLPAMVAAGGGSIIHMGSVNGLFGIGLSGYSEAKSGLLALSRNIAAHYGQHGVRSNVISAATIETANRRAEMENTEERTGETSARERWLDQYPLGRFGTPREVADTTLFLASEMSSFLTGENLVLDGGLTTSLPTSFINEVYDADEKPTPNEGHHHHHH | soluble
MSLENLQTNFSLVQGSTKKLNGMGDDGSPPAKKMITDIHVNGKTINKVPTVKKEHLDDYGEAPVETDGEHVKRTCTSVPETLHLNPSLKHTLAQFHLSSQSSLGGPAAFSARHSQESMSPTVFLPLPSPQVLPGPLLIPSDSSTELTQTVLEGESISCFQVGGEKRLCLPQVLNSVLREFTLQQINTVCDELYIYCSRCTSDQLHILKVLGILPFNAPSCGLITLTDAQRLCNALLRPREGHHHHHH | soluble
MSLENTDINISALLNVDIDKILKQTIKEKIEKLMEIELNAYLEENPGIKNGKYKRDLKTKYGEIKQLNVPRDRDSNFHTQVIEPYNRSIGMEDLIVSMYSNGISTRRIAGIMEDILGNKYSKSTISRITDLTIEEVYKFINRPLDKRYIAVFLDGLFFYLRRGNVDKEPVIFALGIKETGEYEVLGFYLTVKESHNAYKEVLEDLYNRGLKEPLLIVADGIKNLDEEVMEIYPRSEFQLCTIHYARGLKSNVREKDIDEITIDANKMFKCDNKEEAIIRFNDFKYKWKSKYPKVIYNTEKNLGKLLRFYNYPVNIRKSLKSTNAIERFNGEVRRRVKTISSFPDEDSAMKVFYYKSIEYNSKHAFRKMNGYYKCKDEIKEMFQKREGHHHHHH | not soluble
MSLENVDPFDIIRQFRSVIAKTSLQASSNIEGLDTVWNSDLVLEANFWHLVEILLSFRTSQEFLDKESSISSKPYNSSIIFEKELLQKDKNLYQIWLIIVWIEGNFPFVEKPSNIPSSKWTNTLVTSGLMSSDLDYPLRDCSVVINDKDKADDHVFYKYVYELLLCGNYDQIFEECKLSDNITLNMIMCGMQEYVDPSIDVQLKDEFEVQQGVKKHSLWRRAVYSLSQNDKLDKYERAIYSYLAGDIPNDEVLQTLNWDSELLVYLNQILKIEVENYLLQNGKVNNDELILSLPSNTMDLQSILNLLSAKHPEESEHPIRVLIGSVMLNTIPSVLHSSVSMLMNVVTGIENDNDIFGEPYLLRVVTHMTIFLEILNPGTISESDKTKLITAYISILKSQELYDLIPIYISFLSHNEAIEASSFILSNLEGKDIRKKQLEICNFLKLPVEDMLKRTTQCVFAETEGHHHHHH | not soluble
MSLEPKIVRFDLGKEYIILTSALYPEGIIRVNQICSIFVDKSYCSGNPWGDVINWCPSKSAIMFMTAAKNYTFKETDWGKFFISAGIGRSGEDAGCTINIGVFVDKGLNINGLVDLIRTVTEAKAGALRDLGYKFTGTVSDAIAVGSLPGNEYFIGPGTELGKKIAYDIRNTIVELLFKGDDEGHHHHHH | soluble
MSLEQELKLLFLRAHQRALSSLQFTEEAVDFLISCADGDARRLLNLLEQTKTACLTIKTAVVDVELLHNVIVQNSRRFDKGGEAFYDQISALHKSVRGSNPDAALYWLCRMLDGGVDPYYLARRIIRMSWEDIGLADPKAIQIANDAAATYERLGSPEGELALAQAVIYLSVAAKSNAGYVAFNQAMEFIKRDKSREVPIHLRNAPTQLMKKLGYGHEYRYAHDEPHGYAAGECYLPEGMPEVNWYNPVQRGLETKIAEKLAFLRQLDKDVKKEGHHHHHH | not soluble
MSLESGELIGACEFMKDRLYFATLRNRPKSTVNTHYFSIDEELVYENFYADFGPLNLAMVYRYCCKLNKKLKSYSLSRKKIVHYTCFDQRKRANAAFLIGAYAVIYLKKTPEEAYRALLSGSNPPYLPFRDASFGNCTYNLTILDCLQGIRKGLQHGFFDFETFDVDEYEHYERVENGDFNWIVPGKFLAFSGPHPKSKIENGYPLHAPEAYFPYFKKHNVTAVVRLNKKIYEAKRFTDAGFEHYDLFFIDGSTPSDNIVRRFLNICENTEGAIAVHCKAGLGRTGTLIACYVMKHYRFTHAEIIAWIRICRPGSIIGPQQHFLEEKQASLWVQGDIFRSKLKNRPSSEGEGHHHHHH | soluble
MSLESVQNYEAKSAHAHQAFFLKFEELKEVSKEQPRLEAEYPANTTKNYDHSRVRLTQLEGEPHSDYINANLVPGYTRPQEFIASQGPLKKTLENFWRLVREQQVRIIIMPTISMENGRVLCEHYWLTDSTPDTHGHITIHLLAEEPEDEWTKREFQLQHLLRGCPCGVGMGRTGTFVALSRLLQQLEEEQMVDVFHAVYALRMHQPLMIQTLSQYVFLHSCLLNKILEGPFNISESWPISVTDLPQACAKRAASANAGFLKEYEAIKDEAGFSAPPPGYEQDSPVSYDRSQGQFSPVEESPPDDMPEAWLFPGGPSGRDHTVLTGPAGPKELWELVWQHRAHVLVSLCPPNVMEKGESRKEREVQRLQFPYLEPGHELPATTLLPFLAAVGQCCSRGNNKKPGTLLSHSKCCWTMVSCSKGATQLGTFLAMEQLLQQAGSECTVDIFNVALQQSQACGLMTPTLITQQCLLLSDCTAPPPTEGHHHHHH | not soluble
